Patent US20030236197A1 (PRAECIS PHARMACEUTICALS, published 2003)
Square brackets hold non-standard residues; d marks the D form. Ends that are not written are not given here. * marks the point of attachment. dPhe(F5) = N[C@H](Cc1c(F)c(F)c(F)c(F)c1F)C(=O)O; dPhe(4-F) = N[C@H](Cc1ccc(F)cc1)C(=O)O; NHiPr = CC(C)N*

Experiments:
[1] = molecular target: T1, Aβ1-40 peptide (monomeric start material of the nucleation assay); test: cell-based or functional assay
[2] = molecular target: T1, Aβ1-40 peptide (monomeric start …); test: cell-based or functional assay; remark: listed apart in the source

Binder	Nucleation assay Δ lag at 1.25 µM compound [1]	Nucleation assay Δ lag at 2.5 µM compound [1]	Nucleation assay Δ lag at 5 µM compound [1]	further results
{N‑methyl}-G[dA][dF][dF][dV][dL]-NH2 (also: TFA salt) [PPI-968: TFA • N-methyl-(Gaffvl)-NH2]	2 ratio of lag time to control	> 5 ratio of lag time to control	> 5 ratio of lag time to control	–
H-[dL][dV][dF][dF][dA]-NHiPr (also: TFA salt) [PPI-992: TFA • H-(lvffa)-isopropylamide]	1 ratio of lag time to control	1 ratio of lag time to control	3 ratio of lag time to control	–
{N‑methyl}-[dL][dV][dF][dF][dL]-NH2 (also: TFA salt) [PPI-1019: TFA • N-methyl-(lvffl)-NH2]	–	–	–	Nucleation assay data (Δ lag) at 0.6 µM compound (row marked *: measured at 2.5, 1.25 and 0.6 µM) [2]: 2 ratio of lag time to control; Nucleation assay data (Δ lag) at 1.25 µM compound (row marked *: measured at 2.5, 1.25 and 0.6 µM) [2]: > 2.5 ratio of lag time to control; Nucleation assay data (Δ lag) at 2.5 µM compound (row marked *: measured at 2.5, 1.25 and 0.6 µM) [2]: > 2.5 ratio of lag time to control
H-[dL][dF][dPhe(4-F)][dV][dL]-NH2 (also: TFA salt) [PPI-1319: TFA • H-(lf-[p-F]f-vl)-NH2]	–	–	–	Nucleation assay data (Δ lag) at 0.3 µM compound [2]: 1 ratio of lag time to control; Nucleation assay data (Δ lag) at 1 µM compound [2]: > 5 ratio of lag time to control; Nucleation assay data (Δ lag) at 3 µM compound [2]: > 5 ratio of lag time to control
{N,N‑dimethyl}-[dA][dF][dF][dV][dL]-NH2 (also: TFA salt) [PPI-913: TFA • N,N-dimethyl-(affvl)-NH2]	1 ratio of lag time to control	1 ratio of lag time to control	1 ratio of lag time to control	–
{N,N‑diethyl}-[dA][dF][dF][dV][dL]-NH2 (also: TFA salt) [PPI-1006: TFA • N,N-diethyl-(affvl)-NH2]	1 ratio of lag time to control	1 ratio of lag time to control	1 ratio of lag time to control	–
H-[dL][dF][dPhe(F5)][dV][dL]-NH2 (also: TFA salt) [PPI-1320: TFA • H-(lf-[F5]f-vl)-NH2]	–	–	–	Nucleation assay data (Δ lag) at 0.3 µM compound [2]: 1 ratio of lag time to control; Nucleation assay data (Δ lag) at 1 µM compound [2]: 3 ratio of lag time to control; Nucleation assay data (Δ lag) at 3 µM compound [2]: > 5 ratio of lag time to control
H-[dL][dF][dK][dV][dL]-NH2 (also: 2 TFA salt) [PPI-1321: 2TFA • H-(lfkvl)-NH2]	–	–	–	Nucleation assay data (Δ lag) at 0.3 µM compound [2]: < 1 ratio of lag time to control; Nucleation assay data (Δ lag) at 1 µM compound [2]: < 1 ratio of lag time to control; Nucleation assay data (Δ lag) at 3 µM compound [2]: < 1 ratio of lag time to control
H-[dL][dV][dF][dF][dA]-NMe2 (also: TFA salt) [PPI-993: TFA • H-(lvffa)-dimethylamide]	1 ratio of lag time to control	1 ratio of lag time to control	1 ratio of lag time to control	–
G[dA][dF][dF][dV][dL]-NH2 (not fully specified (N-terminus); printed as N-isopropyl-(Gly-D-Ala-D-Phe-D-Phe-D-Val-D-Leu)-NH2; also: TFA salt) [PPI-970: TFA • N-isopropyl-(Gaffvl)-NH2]	1 ratio of lag time to control	> 5 ratio of lag time to control	> 5 ratio of lag time to control	–
{N,N‑dimethyl}-G[dA][dF][dF][dV][dL]-NH2 (also: TFA salt) [PPI-803: TFA • N,N-dimethyl-(Gaffvl)-NH2]	< 1 ratio of lag time to control	< 1 ratio of lag time to control	< 1 ratio of lag time to control	–
{N,N‑diethyl}-G[dA][dF][dF][dV][dL]-NH2 (also: TFA salt) [PPI-1005: TFA • N,N-diethyl-(Gaffvl)-NH2]	1 ratio of lag time to control	3 ratio of lag time to control	3 ratio of lag time to control	–
H-[dL]-[dV]-[dF] (also: dimer: C-termini of two tripeptides joined through hydrazine (-NH-NH-), 2 TFA salt) [PPI-1125: 2 TFA • H-lvf-NH-NH-fvl-H]	–	–	–	Nucleation assay data (Δ lag) at 0.6 µM compound (row marked *: measured at 2.5, 1.25 and 0.6 µM) [2]: 2 ratio of lag time to control; Nucleation assay data (Δ lag) at 1.25 µM compound (row marked *: measured at 2.5, 1.25 and 0.6 µM) [2]: > 2.5 ratio of lag time to control; Nucleation assay data (Δ lag) at 2.5 µM compound (row marked *: measured at 2.5, 1.25 and 0.6 µM) [2]: > 2.5 ratio of lag time to control
{N,N‑dimethyl}-[dL][dV][dF][dF][dL]-NH2 (also: TFA salt) [PPI-1007: TFA • N,N-dimethyl-(lvffl)-NH2]	–	–	–	Nucleation assay Δ lag at 0.3 µM compound (row marked *: measured at 3, 1 and 0.3 µM) [1]: 3 ratio of lag time to control; Nucleation assay Δ lag at 0.6 µM compound (row marked #: measured at 2.5, 1.25 and 0.6 µM) [1]: 1.5 ratio of lag time to control; Nucleation assay Δ lag at 1 µM compound (row marked *: measured at 3, 1 and 0.3 µM) [1]: 4 ratio of lag time to control; Nucleation assay Δ lag at 1.25 µM compound (row marked #: measured at 2.5, 1.25 and 0.6 µM) [1]: 1.5 ratio of lag time to control; Nucleation assay Δ lag at 2.5 µM compound (row marked #: measured at 2.5, 1.25 and 0.6 µM) [1]: 1.5 ratio of lag time to control; Nucleation assay Δ lag at 3 µM compound (row marked *: measured at 3, 1 and 0.3 µM) [1]: 4 ratio of lag time to control
